Source: paper PMC11615828
Each block holds one substance with its values, some of them ahead of it.

Columns and labels:
[1] = molecular target: LifeAct‐CFP‐FRB
[2] = molecular target: EMTB‐YFP‐CIBN (UniProt Q8GY61)
[3] = molecular target: EMTB‐CFP‐FRB
[4] = molecular target: EMTB‐YFP‐CIBN (UniProt Q8GY61); remark: listed apart in the source
[5] = molecular target: CFP‐FRB‐MAP4m
[6] = molecular target: EMTB‐CFP‐FRB; remark: listed apart in the source

Substance: ACE2‐mNeon‐FKBP
- internalisation of SARS-CoV2 spike‐Alexa Fluor 647 into ACE2-positive HeLa cells after 2 h, rapamycin 100 nM against DMSO [1]: 89%

- immobilisation of LAMP1-labelled lysosomes under blue light (half time on) [2]: 6.2 s
- return of lysosome mobility after the end of blue light (half time off) [2]: 68.8 s
Substance: LAMP1‐mCh‐Cry2

- motility of LAMP1-labelled lysosomes slowed after rapamycin (half time of the slowing) [3]: 11 s
Substance: LAMP1‐mNeon‐FKBP

- motility of post-Golgi vesicles halted after rapamycin 100 nM (half time) [3]: 9 s
Substance: TGN38‐mNeon‐FKBP

- immobilisation of VAMP2-labelled vesicles under blue light (half time on) [4]: 7 s
- return of VAMP2 vesicle mobility after blue light (half time off) [4]: 68.1 s
Substance: mCh‐Cry2‐VAMP2

- movement of IFT88 particles along axonemes in cilia of NIH3T3 cells after rapamycin 100 nM [5]: 20 s
Substance: mNeon‐FKBP‐IFT88

- motility of endosomes halted after rapamycin 100 nM (half time) [3]: 11.8 s
Substance: mNeon‐FKBP‐Rab5b

- motility of recycling endosomes halted after rapamycin 100 nM (half time) [3]: 12.5 s
Substance: mNeon‐FKBP‐Rab11b

- motility of exocytic vesicles halted after rapamycin 100 nM (half time) [3]: 12.3 s
Substance: mNeon‐FKBP‐Rab37

- immobilisation of VAMP2-labelled vesicles in COS7 cells after rapamycin 100 nM (half time) [6]: 19.2 s
- immobilisation of VAMP2-labelled vesicles in primary culture cortical neurons after rapamycin 100 nM (half time) [6]: 13.6 s
Substance: mNeon‐FKBP‐VAMP2
